For the experiment, the target named is ERα-LBD (ligand binding domain of estrogen receptor α). Description: other fluorescence titration; quenching of the endogenous fluorescence of ERα-LBD (0.2 μm, 600 μL) by microaddition of CTX solution; excitation 295 nm, slits 10 nm, 25°C.

Substance “chlorotoxin (CTX), recombinant, cut from GST-CTX (from UniProt P45639 1-36) (peptide)” came in with a Ka of 3e+07 M⁻¹.
